Measured values as given in paper PMC8526985, “Characterization of the transactivation and nuclear localization functions of Pichia pastoris zinc finger transcription factor Mxr1p”.
Positions count from the first letter of the chain named.

Molecular target: T1, Mxr1pN150 (Pichia pastoris (Komagataella phaffii), UniProt C4R818 1-150)
T1 sequence: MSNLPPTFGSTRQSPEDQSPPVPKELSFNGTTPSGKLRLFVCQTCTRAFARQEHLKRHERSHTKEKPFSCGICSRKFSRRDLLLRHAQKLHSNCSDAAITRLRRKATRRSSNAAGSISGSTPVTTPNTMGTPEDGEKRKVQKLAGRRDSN
Assay: EMSA; EMSA conditions not given in the material
Conditions: protein: recombinant; (radiolabeled)

B1: ALD6-1 promoter MXRE2 (dsDNA)
DNA 1: CCGCACCCCCGAATTTTCACAAATTACCCCACACCCTATA
DNA 2: TATAGGGTGTGGGGTAATTTGTGAAAATTCGGGGGTGCGG
B1: binds.

B2: MXRE2-M (dsDNA)
DNA 1: B1 DNA 1 with C30A
DNA 2: B1 DNA 2 with G11T
B2: no binding.

B3: ALD6-1 promoter MXRE1 (dsDNA)
DNA 1: CCGCTCAACGGTTCTCCTCTACATCGTCCCTCTTTTGGAG
DNA 2: CTCCAAAAGAGGGACGATGTAGAGGAGAACCGTTGAGCGG
B3: binds.

B4: MXRE1-M (dsDNA)
DNA 1: B3 DNA 1 with C17A
DNA 2: B3 DNA 2 with G24T
B4: no binding.

B5: ALD6-1 promoter MXRE3 (dsDNA)
DNA 1: ACCCTATACTCCACCACTATGAGGGTTATTAGAACTGATC
DNA 2: GATCAGTTCTAATAACCCTCATAGTGGTGGAGTATAGGGT
B5: binds.

B6: MXRE3-M (dsDNA)
DNA 1: B5 DNA 1 with C12A
DNA 2: B5 DNA 2 with G29T
B6: no binding.
